Patent publication US20230250154A1 (CYTONICS, published 2023)

T1: MMP1 (human, UniProt P03956 100-469, limits assumed)
T1 sequence (looked up): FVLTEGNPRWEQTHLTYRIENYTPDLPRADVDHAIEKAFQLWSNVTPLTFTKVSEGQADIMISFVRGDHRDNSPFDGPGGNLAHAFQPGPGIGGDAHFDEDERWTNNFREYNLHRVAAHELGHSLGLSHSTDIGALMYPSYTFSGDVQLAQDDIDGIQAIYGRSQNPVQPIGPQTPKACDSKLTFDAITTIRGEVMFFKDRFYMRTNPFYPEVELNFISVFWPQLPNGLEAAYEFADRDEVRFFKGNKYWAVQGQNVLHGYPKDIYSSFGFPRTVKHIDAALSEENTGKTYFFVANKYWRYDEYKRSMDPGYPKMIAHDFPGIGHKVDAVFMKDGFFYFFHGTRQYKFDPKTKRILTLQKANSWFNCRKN

T2: ADAMTS4 (human, UniProt O75173 213-685, limits assumed)
T2 sequence (looked up): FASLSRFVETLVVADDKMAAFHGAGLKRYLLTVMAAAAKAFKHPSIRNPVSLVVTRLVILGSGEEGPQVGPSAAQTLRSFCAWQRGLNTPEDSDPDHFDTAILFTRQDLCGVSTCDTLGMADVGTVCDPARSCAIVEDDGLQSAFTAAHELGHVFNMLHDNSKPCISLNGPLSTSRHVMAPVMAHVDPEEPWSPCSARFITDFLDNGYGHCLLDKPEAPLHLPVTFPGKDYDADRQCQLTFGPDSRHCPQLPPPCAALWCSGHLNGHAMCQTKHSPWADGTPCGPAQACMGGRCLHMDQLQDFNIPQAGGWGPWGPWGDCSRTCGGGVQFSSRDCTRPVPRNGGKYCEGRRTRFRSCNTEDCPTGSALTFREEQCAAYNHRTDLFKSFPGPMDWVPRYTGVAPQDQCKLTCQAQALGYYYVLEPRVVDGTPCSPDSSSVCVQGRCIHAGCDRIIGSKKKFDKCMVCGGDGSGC

T3: Cathepsin G (UniProt P08311 21-244)
T3 sequence (looked up): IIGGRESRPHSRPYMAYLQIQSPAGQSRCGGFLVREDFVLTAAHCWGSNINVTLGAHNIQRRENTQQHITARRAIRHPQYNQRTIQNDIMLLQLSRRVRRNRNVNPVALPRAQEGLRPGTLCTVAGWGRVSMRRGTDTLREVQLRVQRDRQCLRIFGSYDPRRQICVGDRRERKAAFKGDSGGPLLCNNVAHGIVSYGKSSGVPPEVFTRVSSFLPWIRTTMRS

T4: MMP2 (human, UniProt P08253 110-660, limits assumed)
T4 sequence (looked up): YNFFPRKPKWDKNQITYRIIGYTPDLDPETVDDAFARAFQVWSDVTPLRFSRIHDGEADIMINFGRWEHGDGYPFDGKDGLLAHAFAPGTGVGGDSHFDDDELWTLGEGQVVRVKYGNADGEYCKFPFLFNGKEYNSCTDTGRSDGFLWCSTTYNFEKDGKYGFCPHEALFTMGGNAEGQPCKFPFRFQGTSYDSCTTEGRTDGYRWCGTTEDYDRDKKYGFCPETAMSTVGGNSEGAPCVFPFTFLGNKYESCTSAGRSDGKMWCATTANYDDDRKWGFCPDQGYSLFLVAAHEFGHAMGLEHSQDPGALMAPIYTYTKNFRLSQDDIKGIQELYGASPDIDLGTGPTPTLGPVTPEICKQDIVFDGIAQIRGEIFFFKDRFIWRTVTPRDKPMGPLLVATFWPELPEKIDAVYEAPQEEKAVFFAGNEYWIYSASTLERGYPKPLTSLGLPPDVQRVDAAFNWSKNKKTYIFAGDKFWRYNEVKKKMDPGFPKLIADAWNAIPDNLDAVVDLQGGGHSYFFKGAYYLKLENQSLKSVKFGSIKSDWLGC

T5: MMP7 (UniProt P09237 95-267, limits assumed)
T5 sequence (looked up): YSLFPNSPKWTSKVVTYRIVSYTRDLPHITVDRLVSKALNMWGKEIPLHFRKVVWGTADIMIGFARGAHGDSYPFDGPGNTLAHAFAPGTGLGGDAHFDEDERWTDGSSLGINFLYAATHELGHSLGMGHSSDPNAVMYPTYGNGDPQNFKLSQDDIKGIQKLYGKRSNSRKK

T6: ADAMTS5 (human, UniProt Q9UNA0 262-622, limits assumed)
T6 sequence (looked up): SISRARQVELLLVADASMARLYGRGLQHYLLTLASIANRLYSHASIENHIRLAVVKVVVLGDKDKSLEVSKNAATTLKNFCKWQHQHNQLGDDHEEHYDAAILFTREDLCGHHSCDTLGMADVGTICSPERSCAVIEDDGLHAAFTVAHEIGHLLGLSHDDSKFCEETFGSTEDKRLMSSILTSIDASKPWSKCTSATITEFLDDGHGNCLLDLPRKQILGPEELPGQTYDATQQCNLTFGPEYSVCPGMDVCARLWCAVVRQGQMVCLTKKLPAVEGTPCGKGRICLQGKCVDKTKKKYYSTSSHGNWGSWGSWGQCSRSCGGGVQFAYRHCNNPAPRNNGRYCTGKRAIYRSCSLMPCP

B1: Variant A2M, bait region SEQ ID NO 12 (other)
chain: SVSGKPQYMVLVPSLLHTETTEKGCVLLSYLNETVTVSASLESVRGNRSLFTDLEAENDVLHCVAFAVPKSSSNEEVMFLTVQVKGPTQEFKKRTTVMVKNEDSLVFVQTDKSIYKPGQTVKFRVVSMDENFHPLNELIPLVYIQDPKGNRIAQWQSFQLEGGLKQFSFPLSSEPFQGSYKVVVQKKSGGRTEHPFTVEEFVLPKFEVQVTVPKIITILEEEMNVSVCGLYTYGKPVPGHVTVSICRKYSDASDCHGEDSQAFCEKFSGQLNSHGCFYQQVKTKVFQLKRKEYEMKLHTEAQIQEEGTVVELTGRQSSEITRTITKLSFVKVDSHFRQGIPFFGQVRLVDGKGVPIPNKVIFIRGNEANYYSNATTDEHGLVQFSINTTNVMGTSLTVRVNYKDRSPCYGYQWVSEEHEEAHHTAYLVFSPSKSFVHLEPMSHELPCGHTQTVQAHYILNGGTLLGLKKLSFYYLIMAKGGIVRTGTHGLLVKQEDMKGHFSISIPVKSDIAPVARLLIYAVLPTGDVIGDSAKYDVENCLANKVDLSFSPSQSLPASHAHLRVTAAPQSVCALRAVDQSVLLMKPDAELSASSVYNLLPEKDLTGFPGPLNDQDDEDCINRHNVYINGITYTPVSSTNEKDMYSFLEDMGLKAFTNSKIRKPKMCPQLEHGPEGEGEGEIPENFEFRGVSEDLVVQISELEGRGSVEEPHTKLRKYFPETWIWDLVVVNSAGVAEVGVTVPDTITEWKAGAFCLSEDAGLGISSTASLRAFQPFFVELTMPYSVIRGEAFTLKATVLNYLPKCIRVSVQLEASPAFLAVPVEKEQAPHCICANGRQTVSWAVTPKSLGNVNFTVSAEALESQELCGTEVPSVPEHGRKDTVIKPLLVEPEGLEKETTFNSLLCPSGGEVSEELSLKLPPNVVEESARASVSVLGDILGSAMQNTQNLLQMPYGCGEQNMVLFAPNIYVLDYLNETQQLTPEIKSKAIGYLNTGYQRQLNYKHYDGSYSTFGERYGRNQGNTWLTAFVLKTFAQARAYIFIDEAHITQALIWLSQRQKDNGCFRSSGSLLNNAIKGGVEDEVTLSAYITIALLEIPLTVTHPVVRNALFCLESAWKTAQEGDHGSHVYTKALLAYAFALAGNQDKRKEVLKSLNEEAVKKDNSVHWERPQKPKAPVGHFYEPQAPSAEVEMTSYVLLAYLTAQPAPTSEDLTSATNIVKWITKQQNAQGGFSSTQDTVVALHALSKYGAATFTRTGKAAQVTIQSSGTFSSKFQVDNNNRLLLQQVSLPELPGEYSMKVTGEGCVYLQTSLKYNILPEKEEFPFALGVQTLPQTCDEPKAHTSFQISLSVSYTGSRSASNMAIVDVKMVSGFIPLKPTVKMLERSNHVSRTEVSSNHVLIYLDKVSNQTLSLFFTVLQDVPVRDLKPAIVKVYDYYETDEFAIAEYNAPCSKDLGNADYKDDDDKGASHHHHHH
B2: Variant A2M, bait region SEQ ID NO 10 (other)
chain: SVSGKPQYMVLVPSLLHTETTEKGCVLLSYLNETVTVSASLESVRGNRSLFTDLEAENDVLHCVAFAVPKSSSNEEVMFLTVQVKGPTQEFKKRTTVMVKNEDSLVFVQTDKSIYKPGQTVKFRVVSMDENFHPLNELIPLVYIQDPKGNRIAQWQSFQLEGGLKQFSFPLSSEPFQGSYKVVVQKKSGGRTEHPFTVEEFVLPKFEVQVTVPKIITILEEEMNVSVCGLYTYGKPVPGHVTVSICRKYSDASDCHGEDSQAFCEKFSGQLNSHGCFYQQVKTKVFQLKRKEYEMKLHTEAQIQEEGTVVELTGRQSSEITRTITKLSFVKVDSHFRQGIPFFGQVRLVDGKGVPIPNKVIFIRGNEANYYSNATTDEHGLVQFSINTTNVMGTSLTVRVNYKDRSPCYGYQWVSEEHEEAHHTAYLVFSPSKSFVHLEPMSHELPCGHTQTVQAHYILNGGTLLGLKKLSFYYLIMAKGGIVRTGTHGLLVKQEDMKGHFSISIPVKSDIAPVARLLIYAVLPTGDVIGDSAKYDVENCLANKVDLSFSPSQSLPASHAHLRVTAAPQSVCALRAVDQSVLLMKPDAELSASSVYNLLPEKDLTGFPGPLNDQDDEDCINRHNVYINGITYTPVSSTNEKDMYSFLEDMGLKAFTNSKIRKPKMCPQLEHGPEGEGLGEGIPENFYGVSEDLVVQISELEGRGSVEEPHTKLRKYFPETWIWDLVVVNSAGVAEVGVTVPDTITEWKAGAFCLSEDAGLGISSTASLRAFQPFFVELTMPYSVIRGEAFTLKATVLNYLPKCIRVSVQLEASPAFLAVPVEKEQAPHCICANGRQTVSWAVTPKSLGNVNFTVSAEALESQELCGTEVPSVPEHGRKDTVIKPLLVEPEGLEKETTFNSLLCPSGGEVSEELSLKLPPNVVEESARASVSVLGDILGSAMQNTQNLLQMPYGCGEQNMVLFAPNIYVLDYLNETQQLTPEIKSKAIGYLNTGYQRQLNYKHYDGSYSTFGERYGRNQGNTWLTAFVLKTFAQARAYIFIDEAHITQALIWLSQRQKDNGCFRSSGSLLNNAIKGGVEDEVTLSAYITIALLEIPLTVTHPVVRNALFCLESAWKTAQEGDHGSHVYTKALLAYAFALAGNQDKRKEVLKSLNEEAVKKDNSVHWERPQKPKAPVGHFYEPQAPSAEVEMTSYVLLAYLTAQPAPTSEDLTSATNIVKWITKQQNAQGGFSSTQDTVVALHALSKYGAATFTRTGKAAQVTIQSSGTFSSKFQVDNNNRLLLQQVSLPELPGEYSMKVTGEGCVYLQTSLKYNILPEKEEFPFALGVQTLPQTCDEPKAHTSFQISLSVSYTGSRSASNMAIVDVKMVSGFIPLKPTVKMLERSNHVSRTEVSSNHVLIYLDKVSNQTLSLFFTVLQDVPVRDLKPAIVKVYDYYETDEFAIAEYNAPCSKDLGNADYKDDDDKGASHHHHHH

Assays:
Assay in all cases: cell-based or functional assay
MMP8 = MMP8 (human, UniProt P22894 101-467, limits assumed)
Chain of MMP8 (P22894 101-467 limits assumed): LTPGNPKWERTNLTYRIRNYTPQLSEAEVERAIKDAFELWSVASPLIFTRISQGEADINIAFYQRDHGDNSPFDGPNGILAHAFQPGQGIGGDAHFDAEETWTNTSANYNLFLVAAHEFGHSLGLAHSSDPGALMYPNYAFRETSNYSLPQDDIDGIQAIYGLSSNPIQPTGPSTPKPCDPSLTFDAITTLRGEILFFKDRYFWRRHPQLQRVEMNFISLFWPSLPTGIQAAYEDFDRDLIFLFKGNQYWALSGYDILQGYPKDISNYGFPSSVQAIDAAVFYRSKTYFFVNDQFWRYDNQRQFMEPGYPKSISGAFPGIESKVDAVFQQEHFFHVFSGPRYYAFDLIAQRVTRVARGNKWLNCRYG

Elastase = target: Elastase
MMP13 = MMP13 (human, UniProt P45452 104-471, limits assumed)
MMP1 = target: T1, MMP1
ADAMTS4 = target: T2, ADAMTS4
MMP3 = MMP3 (human, UniProt P08254 100-477, limits assumed)
Chain of MMP3 (P08254 100-477 limits assumed): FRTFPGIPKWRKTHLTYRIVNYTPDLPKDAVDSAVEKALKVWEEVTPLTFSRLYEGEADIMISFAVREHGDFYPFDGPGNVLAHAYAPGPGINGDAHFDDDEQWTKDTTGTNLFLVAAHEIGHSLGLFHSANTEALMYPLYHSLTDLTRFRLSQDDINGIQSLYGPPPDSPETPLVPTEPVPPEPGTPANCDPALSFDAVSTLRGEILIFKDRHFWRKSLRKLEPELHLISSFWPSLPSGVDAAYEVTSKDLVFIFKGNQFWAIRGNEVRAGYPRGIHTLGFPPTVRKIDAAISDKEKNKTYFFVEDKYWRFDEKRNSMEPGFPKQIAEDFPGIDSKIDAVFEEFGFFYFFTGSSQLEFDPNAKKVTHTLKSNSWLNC

Cathepsin G = target: T3, Cathepsin G
MMP2 = target: T4, MMP2
MMP7 = target: T5, MMP7
ADAMTS5 = target: T6, ADAMTS5
MMP9 = MMP9 (human, UniProt P14780 107-707, limits assumed)
Chain of MMP9 (P14780 107-707 limits assumed): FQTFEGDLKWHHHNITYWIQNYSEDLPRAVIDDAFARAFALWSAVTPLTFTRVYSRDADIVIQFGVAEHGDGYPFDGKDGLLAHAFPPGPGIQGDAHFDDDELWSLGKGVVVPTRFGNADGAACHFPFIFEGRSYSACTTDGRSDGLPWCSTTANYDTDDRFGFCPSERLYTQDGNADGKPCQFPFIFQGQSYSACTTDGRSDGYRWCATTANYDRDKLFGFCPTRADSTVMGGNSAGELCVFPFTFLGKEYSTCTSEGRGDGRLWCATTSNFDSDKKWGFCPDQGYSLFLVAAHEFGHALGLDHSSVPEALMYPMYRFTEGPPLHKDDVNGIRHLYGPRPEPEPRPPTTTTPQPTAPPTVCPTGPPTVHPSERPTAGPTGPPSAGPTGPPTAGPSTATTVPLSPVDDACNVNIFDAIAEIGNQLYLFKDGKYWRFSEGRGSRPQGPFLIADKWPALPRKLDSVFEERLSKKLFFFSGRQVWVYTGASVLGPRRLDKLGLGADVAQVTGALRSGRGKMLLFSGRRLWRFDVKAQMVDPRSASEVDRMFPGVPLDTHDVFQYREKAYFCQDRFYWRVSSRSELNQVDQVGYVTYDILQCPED

Binder | Protease Inhibition (% of WT) (MMP8) | Protease Inhibition (% of WT) (Elastase) | Protease Inhibition (% of WT) (MMP13) | Protease Inhibition (% of WT) (MMP1) | Protease Inhibition (% of WT) (ADAMTS4) | Protease Inhibition (% of WT) (MMP3) | Protease Inhibition (% of WT) (Cathepsin G) | Protease Inhibition (% of WT) (MMP2) | Protease Inhibition (% of WT) (MMP7) | Protease Inhibition (% of WT) (ADAMTS5) | Protease Inhibition (% of WT) (MMP9)
B1 | 54 % of WT | 117 % of WT | 72 % of WT | 108 % of WT | 208 % of WT | 182 % of WT | 105 % of WT | 16 % of WT | 160 % of WT | 440 % of WT | 0 % of WT
B2 | 38 % of WT | 106 % of WT | 128 % of WT | 111 % of WT | 159 % of WT | 27 % of WT | 134 % of WT | 25 % of WT | 191 % of WT | 412 % of WT | 16 % of WT
